Experimental findings from paper PMC2925307 are described below.

The target of this assay is β subunit of Roseobacter denitrificans propionyl-coenzyme A carboxylase (Roseobacter denitrificans). Nature of the assay: crystal structure.

In the case of “β subunit of Roseobacter denitrificans propionyl-coenzyme A carboxylase”, the stoichiometry N was determined as 6.

The stoichiometry N is a count of units in the complex or per binding partner.
